Test results from paper PMC6378725 (BMC Biotechnology, 2019).

How the values were obtained:
[1] = biological target: T1, HLA-A2 on stably transfected B721.221 cells (Homo sapiens, HLA-A*02:01, strain); test: flow cytometry on cells; 150,000 BLCL cells with various concentrations of purified mAbs in PBS 0.5% BSA, 30 min at room temperature; PE goat anti-human IgG; conditions: one partner purified
T1 construct: beta-2-microglobulin of the cells; also called 721.221(A2); B721.221 A2; source: B721.221 cells, stably transfected, on the cell surface; copies: + +

[2] = biological target: T2, HLA-A*02:01 on BLCL HEN cells (Homo sapiens, HLA-A*02:01, strain); test: as above; conditions: one partner purified
T2 construct: HLA-A*02:01 naturally expressed on BLCL HEN; beta-2-microglobulin of the cells; also called BLCL HEN expressing HLA-A2; source: endogenous, on BLCL HEN cells (HLA-A*02:01/ HLA-A*0101); copies: + +

[3] = biological target: T3, HLA-A*02:01 on a single antigen bead (Homo sapiens, HLA-A*02:01, strain); test: single antigen flow bead assay (Luminex); LabScreen single-antigen LS1A04 beads with 97 MHC class I alleles, Luminex 100 analyser; positivity threshold MFI 1000; conditions: both partners purified
T3 construct: beta-2-microglobulin; source: bought: One Lambda (LabScreen single-antigen LS1A04); copies: + +

Measured: binding result

B1: C4.4 (antibody, V domains shown)
VH: EVQLVESGAEVKKPGESLKISCKASGYRFTNYWIGWVRQMPGKGLEWMGIIYPYHSDTQYTPSFQGQVTISADESTTTAYLHLSSLKASDTAIYYCVRLRGDFVPVVFAPYFDSWGQGTLVT
VL: QSALTQPRSVSGSPGQSVTISCTGSRSDAHTFNYVSWYQQHPGKAPKLMICDVNQRPSGVPDRFSGSKSGDAASLTISGLQAEDEADYYCFSYDANYTLGVFGTGTKVTVL
notes: numbers count on: the heavy chain from the first amino acid of its leader peptide; human heavy chain constant domains of the IgG-AbVec expression vector; human lambda light chain constant domain of the Iglambda-AbVec expression vector; Only the heavy chain was mutated; also called cluster D74H//S80 T//W102 L//M112I//G121D//R124P
binds: all assays above

B2: C4.18 (antibody, V domains shown)
VH: EVQLVESGAEVKKPGESLKISCKASGYRFTNYWIGWVRQMPGKGLEWMGIIYPYHSDTQYSPSFQGQVTISADESTTTAYLHLSSLKASDTAIYYCVRLRGDFVPVVFAPYFDSWGQGTLVT
VL: QSALTQPRSVSGSPGQSVTISCTGSRSDAHTFNYVSWYQQHPGKAPKLMICDVNQRPSGVPDRFSGSKSGDAASLTISGLQAEDEADYYCFSYDANYTLGVFGTGTKVTVL
notes: numbers count on: the heavy chain from the first amino acid of its leader peptide; human heavy chain constant domains of the IgG-AbVec expression vector; human lambda light chain constant domain of the Iglambda-AbVec expression vector; Only the heavy chain was mutated; also called cluster D74H//W102 L//M112I//G121D//R124P
binds: all assays above
